Data: patent publication US20030105278A1 (MERK, published 2003)
Bridges are numbered along the chain shown (N, C = ends).

B1: MCH analog SEQ. ID. NO. 45 (position 6: Ac-D-Ser) (peptide)
peptide: XCMLGRVYRPC
modifications: Ac-D-Ser at position 6; C-terminal amide, Cys-Cys disulfide as in SEQ. ID. NO. 7
notes: ID; NO; 7 peptide; MCH position numbering
B2: MCH analog SEQ. ID. NO. 42 (position 6: Ac-D-Nle) (peptide)
peptide: XCMLGRVYRPC
modifications: Ac-D-Nle at position 6; C-terminal amide, Cys-Cys disulfide as in SEQ. ID. NO. 7
notes: as for B1
B3: MCH analog SEQ. ID. NO. 37 (position 6: H) (peptide)
peptide: H-CMLGRVYRPC-NH2
modifications: disulfide 1-10
notes: as for B1
B4: MCH analog SEQ. ID. NO. 41 (position 6: Ac-D-Arg) (peptide)
peptide: XCMLGRVYRPC
modifications: Ac-D-Arg at position 6; C-terminal amide, Cys-Cys disulfide as in SEQ. ID. NO. 7
notes: ID; NO; 7 peptide; MCH position numbering; 15 (D-Arg^6)
B5: MCH analog SEQ. ID. NO. 28 (N-Me-Arg^11) (peptide)
peptide: RCMLGXVYRPC
modifications: N-methyl-arginine at position 11; N-terminal acetyl, C-terminal amide, Cys-Cys disulfide as in SEQ. ID. NO. 7
B6: MCH analog SEQ. ID. NO. 30 (Sar^15) (peptide)
peptide: RCMLGRVYRXC
modifications: sarcosine at position 15; N-terminal acetyl, C-terminal amide, Cys-Cys disulfide as in SEQ. ID. NO. 7
B7: MCH analog SEQ. ID. NO. 29 (N-Me-Arg^14) (peptide)
peptide: RCMLGRVYXPC
modifications: N-methyl-arginine at position 14; N-terminal acetyl, C-terminal amide, Cys-Cys disulfide as in SEQ. ID. NO. 7
B8: MCH analog SEQ. ID. NO. 69 (position 13: Cha) (peptide)
peptide: RCMLGRVXRPC
modifications: Cha (cyclohexylalanine) at position 13; N-terminal acetyl, C-terminal amide, Cys-Cys disulfide as in SEQ. ID. NO. 7
B9: MCH analog SEQ. ID. NO. 67 (position 13: Phe(pNH2)) (peptide)
peptide: RCMLGRVXRPC
modifications: Phe(pNH2) at position 13; N-terminal acetyl, C-terminal amide, Cys-Cys disulfide as in SEQ. ID. NO. 7
B10: MCH analog SEQ. ID. NO. 66 (position 13: Phe(pF)) (peptide)
peptide: RCMLGRVXRPC
modifications: p-fluoro-phenylalanine at position 13; N-terminal acetyl, C-terminal amide, Cys-Cys disulfide as in SEQ. ID. NO. 7
B11: MCH analog SEQ. ID. NO. 68 (position 13: Phe(pCOOH)) (peptide)
peptide: RCMLGRVXRPC
modifications: Phe(pCOOH) at position 13; N-terminal acetyl, C-terminal amide, Cys-Cys disulfide as in SEQ. ID. NO. 7
B12: MCH analog SEQ. ID. NO. 65 (position 13: (2′)Nal) (peptide)
peptide: RCMLGRVXRPC
modifications: (2′)-naphthylalanine at position 13; N-terminal acetyl, C-terminal amide, Cys-Cys disulfide as in SEQ. ID. NO. 7
B13: MCH analog SEQ. ID. NO. 49 (position 10: Nle) (peptide)
peptide: RCMLXRVYRPC
modifications: norleucine at position 10; N-terminal acetyl, C-terminal amide, Cys-Cys disulfide as in SEQ. ID. NO. 7
B14: MCH analog SEQ. ID. NO. 60 (position 10: β-Ala) (peptide)
peptide: RCMLXRVYRPC
modifications: β-Ala at position 10; N-terminal acetyl, C-terminal amide, Cys-Cys disulfide as in SEQ. ID. NO. 7
B15: MCH analog SEQ. ID. NO. 61 (position 10: γ-Abu) (peptide)
peptide: RCMLXRVYRPC
modifications: γ-Abu (gamma-aminobutyric acid) at position 10; N-terminal acetyl, C-terminal amide, Cys-Cys disulfide as in SEQ. ID. NO. 7
B16: MCH analog SEQ. ID. NO. 59 (position 10: D-Lys) (peptide)
peptide: RCMLXRVYRPC
modifications: D-Lys at position 10; N-terminal acetyl, C-terminal amide, Cys-Cys disulfide as in SEQ. ID. NO. 7
B17: MCH analog SEQ. ID. NO. 55 (position 10: D-Leu) (peptide)
peptide: RCMLXRVYRPC
modifications: D-Leu at position 10; N-terminal acetyl, C-terminal amide, Cys-Cys disulfide as in SEQ. ID. NO. 7
B18: MCH analog SEQ. ID. NO. 56 (position 10: D-Nle) (peptide)
peptide: RCMLXRVYRPC
modifications: D-Nle at position 10; N-terminal acetyl, C-terminal amide, Cys-Cys disulfide as in SEQ. ID. NO. 7
B19: MCH analog SEQ. ID. NO. 32 (position 6: Ac-Nle) (peptide)
peptide: XCMLGRVYRPC
modifications: Ac-Nle (acetyl-norleucine) at position 6; C-terminal amide, Cys-Cys disulfide as in SEQ. ID. NO. 7
B20: MCH analog SEQ. ID. NO. 43 (position 6: Ac-D-Pro) (peptide)
peptide: XCMLGRVYRPC
modifications: Ac-D-Pro at position 6; C-terminal amide, Cys-Cys disulfide as in SEQ. ID. NO. 7
B21: MCH analog SEQ. ID. NO. 46 (position 6: Ac-D-Glu) (peptide)
peptide: XCMLGRVYRPC
modifications: Ac-D-Glu at position 6; C-terminal amide, Cys-Cys disulfide as in SEQ. ID. NO. 7
B22: MCH analog SEQ. ID. NO. 44 (position 6: Ac-D-Asn) (peptide)
peptide: XCMLGRVYRPC
modifications: Ac-D-Asn at position 6; C-terminal amide, Cys-Cys disulfide as in SEQ. ID. NO. 7

These binders were tested against T1, human MCH receptor (membranes from a stable CHO or HEK-293 cell line) (human, UniProt Q99705 1-353) (assay: competition vs [125I]-human MCH (Phe13,Tyr19); human MCH receptor cell membranes (Example 3)).
T1 construct: whole, on cells; also called cloned human MCH receptor (CHO clone)
T1 sequence (Q99705 whole entry): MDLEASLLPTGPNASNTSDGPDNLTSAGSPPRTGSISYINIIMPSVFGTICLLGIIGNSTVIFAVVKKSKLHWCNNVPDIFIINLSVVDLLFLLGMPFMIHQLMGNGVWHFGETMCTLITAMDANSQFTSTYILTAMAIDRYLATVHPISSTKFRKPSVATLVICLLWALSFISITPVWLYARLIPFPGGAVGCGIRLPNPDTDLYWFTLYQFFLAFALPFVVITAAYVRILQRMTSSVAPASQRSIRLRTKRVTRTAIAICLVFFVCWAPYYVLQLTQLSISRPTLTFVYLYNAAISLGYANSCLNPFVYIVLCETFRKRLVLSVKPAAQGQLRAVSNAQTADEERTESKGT

Binder | IC50 [nM]
B1 | 2.3
B2 | 1.2
B3 | 12
B4 | 0.46

Each binder was assayed against T2, human MCH receptor expressed from the open reading frame cDNA SEQ. ID. NO. 1 in 293-AEQ17 cells (human, UniProt Q99705 1-353) (assay: cell-based or functional assay).
T2 sequence (Q99705 whole entry): as above

Binder | Activation % [%] | EC50 [nM]
B5 | 110 | 
B6 | 113 | 25
B7 |  | > 1000

Molecular target: T2, human MCH receptor expressed from the …
Assay: cell-based or functional assay
Remark: another data set of the same source

Binder | Activation % [%] | EC50 [nM]
B8 | 93 | 
B9 | 88 | 
B10 | 98 | 
B11 |  | > 10000
B12 | 105 | 

Molecular target: T2, human MCH receptor expressed from the …
Assay: cell-based or functional assay
Remark: another data set of the same source

Binder | Activation % [%] | EC50 [nM]
B13 | 106 | 
B14 | 3.2 | > 1000
B15 | 101 | 
B16 |  | > 10000
B17 | 23 | 
B18 | 33 | 

Molecular target: T2, human MCH receptor expressed from the …
Assay: cell-based or functional assay
Remark: another data set of the same source

Binder | Activation % [%] | EC50 [nM]
B1 | 93 | 
B19 | 107 | 
B2 | 97 | 110
B3 | 120 | 809
B20 | 96 | 
B21 | 85 | 
B22 | 94 | 
B4 | 86 | 45
